Reference: the DeepSol protein solubility set

Assay: soluble on expression in E. coli; label from the status in PepcDB or PDB records

| Sequence | soluble on expression in E. coli |
| --- | --- |
| MKHSHEEIRKIIPEMRRVQQIHFIGIGGAGMSGIAEILLNEGYQISGSDIADGVVTQRLAQAGAKIYIGHAEEHIEGASVVVVSSAIKDDNPELVTSKQKRIPVIQRAQMLAEIMRFRHGIAVAGTHGKTTTTAMISMIYTQAKLDPTFVNGGLVKSAGKNAHLGASRYLIAEADESDASFLHLQPMVSVVTNMEPDHMDTYEGDFEKMKATYVKFLHNLPFYGLAVMCADDPVLMELVPKVGRQVITYGFSEQADYRIEDYEQTGFQGHYTVICPNNERINVLLNVPGKHNALNATAALAVAKEEGIANEAILEALADFQGAGRRFDQLGEFIRPNGKVRLVDDYGHHPTEVGVTIKAAREGWGDKRIVMIFQPHRYSRTRDLFDDFVQVLSQVDALIMLDVYAAGEAPIVGADSKSLCRSIRNLGKVDPILVSDTSQLGDVLDQIIQDGDLILAQGAGSVSKISRGLAESWKN | soluble |
| MAHHHHHHSLSGPRVERLEVSAYTVPTDYPESDGTLQWDSTTMILVEAHGGGRKGLGYTYGDVSVGRFVESKLAGVAEGSDALSPPAVWARMQAAIRNAGRPGVGAMAVSAVDIALWDLKARLLGLPLADALPRFHAEVPVYGSGGFTSYPLRRLQEQLGGWAAAGIPRVKMKVGREPEKDPERVRAAREAIGESVELMVDANGAYTRKQALYWAGAFAREAGISYLEEPVSSEDREGLRLLRDRGPGGVAIAAGEYEWTLPQLHDLAGCVDILQADVTRCGGITGLLRVDGICRGHQIPFSAHCAPAVSAHACCAVESLLHLEYFHDHARVERLLFDGTLDPEGGSLRPDPDRPGLGLELKRSEAGKYAA | soluble |
| MGSSHHHHHHSSGLVPRGSHMNSILITGCNRGLGLGLVKALLNLPQPPQHLFTTCRNREQAKELEDLAKNHSNIHILEIDLRNFDAYDKLVADIEGVTKDQGLNVLFNNAGIAPKSARITAVRSQELLDTLQTNTVVPIMLAKACLPLLKKAAKANESQPMGVGRAAIINMSSILGSIQGNTDGGMYAYRTSKSALNAATKSLSVDLYPQRIMCVSLHPGWVKTDMGGSSAPLDVPTSTGQIVQTISKLGEKQNGGFVNYDGTPLAW | soluble |
| MTFQKHVAHTQPAKLATTPSPPGTATTPSLMSEDDDHRTITESQEKRRSWLERLSAAFSGDPHTLDDLMVILRSAEHHGIIATDTLRMMEGAIAIADLTVGDVMVPRSQMVSLPVESDLQTITKQMVESGHSRFPVHGENKDEVLGILLAKDLLRGVSANHTITNVHELLRPVGMIPESKKLNVLLKEFRLSHNHMAIVVDEYGGVAGLVTIEDILEQIVGDIDDEHDETEDQTNMIAIQADGCYIVDALTPIEDFNERFNAEFPDDDYDTIGGLVTEAIGHLPETGDELTIGRFAFRVAKANARRIHILHVTVLPPNEQNTA | not soluble |
| MNEIIGKFAREGILIEDNAYFRLREMDDPASVSSELIVKIKSNGGKFTVLTSEMLDEFFEIDNPAEIKARGPLMVPAERDFDFEVISDTSNRSYTSGEIGDMIAYFNSRYSSLKNLLSKRPELKGHIPIADLRGGEDVVSIIGMVNDVRNTKNNHRIIELEDDTGEISVVVHNENHKLFEKSEKIVRDEVVGVHGTKKGRFVVASEIFHPGVPRIQEKEMDFSVAFISDVHIGSQTFLEDAFMKFVKWINGDFGSEEQRSLAADVKYLVVAGDIVDGIGIYPGQEKELLIRDIHEQYEEAARLFGDIRSDIKIVMIPGNHDSSRIAEPQPAIPEEYAKSLYSIRNIEFLSNPSLVSLDGVRTLIYHGRSFDDMAMSVNGLSHERSDLIMEELLEKRHLAPIYGERTPLASEIEDHLVIDEVPHVLHTGHVHINAYKKYKGVHLINSGTFQSQTEFQKIYNIVPTCGQVPVLNRGVMKLLEFSLEHHHHHH | not soluble |
| MLADKESLIEALKLALSTEYNVKRNFTQSVEIILTFKGIDMKKGDLKLREIVPLPKQPSKAKRVLVVPSSEQLEYAKKASPKVVITREELQKLQGQKRPVKKLARQNEWFLINQESMALAGRILGPALGPRGKFPTPLPNTADISEYINRFKRSVLVKTKDQPQVQVFIGTEDMKPEDLAENAIAVLNAIENKAKVETNLRNIYVKTTMGKAVKVKR | soluble |
| MAKGIPVLEIFGPTIQGEGMVIGQKTMFVRTAGCDYSCSWCDSAFTWDGSAKKDIRWMTAEEIFAELKDIGGDAFSHVTISGGNPALLKQLDAFIELLKENNIRAALETQGTVYQDWFTLIDDLTISPKPPSSKMVTNFQKLDHILTSLQENDRQHAVSLKVVIFNDEDLEFAKTVHKRYPGIPFYLQVGNDDVHTTDDQSLIAHLLGKYEALVDKVAVDAELNLVRVLPQLHTLLWGNKRGV | not soluble |
| MGSDKIHHHHHHMESAIDKHLVCPRTLSRRVADDYQPPFPMYVARAAEDLSQVVMGYFGVQYRGADQRSVALAALRRIVADFDAPDGPGNHDLTQHTDNQGYDNLIAVGYWRDPDAYARWIASPAVAEWWASDARLADGIGYFREIVAPRAEQFETLYAFTNDFPGVGSIMDGVSGEIEEHGYWGSMRDRFPISQTDWMHADGELRIVAGDPARGGRVVVLAHDNIALIRSGQDWRAAEDDERRLYLDEIEPTLRSGMDFLRDNGVDVGCYSNRYVRSIDLDGNLLDESYNIGHWRSLDRLERWAESHPTHLRIFVTFFRVVTGLSKLRLYHEVSVFDAKHQVYEYVNCHPTTGMMRDAVAR | not soluble |
| MGSDKIHHHHHHMQMDLETAVMKKKESLNETDKAIVSYLLKYPEDASKLSLMELAQKLYVSKSAIFRLSKKLGLSGFSELKFELTELTNKKVQNKKYVQELDFNNNLHQIIDETFKYFKDANFHDLFIDLDNAETIYIYSTGWQQQIIAEYLAHSFFLIGKKAIILPSAKDEVAMLGRSIEENDMLFVISFGGFNKTIIEELKKIDTVTDKLKFVSLTSWQPGKIASLSDYSFFFKTTPFQISNQNAVTFSSAYVLIDLIINEYGKHCNSKK | not soluble |
| MSEDDPRPLHIRRQGLDPADELLAAGALTRVTIGSGADAETHWMATAHAVVRQVMGDHQQFSTRRRWDPRDEIGGKGIFRPRELVGNLMDYDPPEHTRLRRKLTPGFTLRKMQRMAPYIEQIVNDRLDEMERAGSPADLIAFVADKVPGAVLCELVGVPRDDRDMFMKLCHGHLDASLSQKRRAALGDKFSRYLLAMIARERKEPGEGMIGAVVAEYGDDATDEELRGFCVQVMLAGDDNISGMIGLGVLAMLRHPEQIDAFRGDEQSAQRAVDELIRYLTVPYSPTPRIAREDLTLAGQEIKKGDSVICSLPAANRDPALAPDVDRLDVTREPIPHVAFGHGVHHCLGAALARLELRTVFTELWRRFPALRLADPAQDTEFRLTTPAYGLTELMVAW | soluble |
| MPEVSFIICTRNRVAVLEACLKSVQAACRAHAGFAAELVVVDNGSSDRTAERLASIAAMSDIPFTPVSEPRRGLAAARNAGLRRARGRVLVFVDDDCAVHCDYLRDLERHYASGEQGLIRGGRVELGDPRDLPFTIKRSRVCERLTPDIHPGGFVLGCNMTMHRDVAARIGDFDERFGAGGPLRSAEDTDYLVRAVLLGIPVEYVPDMTIFHHHGRRDRKAIEKLHRDYSLGNGGLCLKHIRHAPWLLRHFYWAARGALRELAGGPAFDRDLDLSHRPIVGMNVLGAARYALLLLARRPQAEPARQDQQANAEAPLLEHHHHHH | not soluble |
| MGKTSQRKQCDCENPSKPCLSTSIPLRMSSYTFKRPVTKITSHLGNEVRYYQWEETFKKPEQACWQKRLQGLQAYSSAGELLSTSDLAKTLKDLTSTDTVASASDTQATSIDITSVPTLESSSHLANMIPEAGPQILCKEFLVTEQDIINQERKVKIARERLAVALIAHKLASEMETVRGSRKANL | not soluble |
| MAHHHHHHMKRVNAIESNREEARERQLSVVRERAKHEAEKMAEELERRSGATLDEIGRTLEAKKRESSALQADRESRIWECEHTLEKIRTRKEDEESASERLRQAMQQPGQGLGLRQSATETKEQQLEMVQLDGARGREAVMRERHSIEAVRRTVRKERCRQRRQWIHQIKEMNAKFPEQVRPLAEERKKKYEQATAKEDAAERALAADVKMIEEYLPKPISLEDIPVNPEETDIIRHQFDEVFTQ | not soluble |
| DIQALALLEILDPIREGAAETLDYLRSQEVGLKIISGDNPVTVSSIAQKAGFADYHSYVDCSKITDEELMAMAEETAIFGRVSPHQKKLIIQTLKKAGHTTAMTGDGVNDILALREADCSIVMAEGDPATRQIANLVLLNSDFNDVPE | not soluble |
| MVSKRTKESIRNLNIFKGLELCIHISESVSYRVSKNRTVIFIISIGYKGVTVSKGPTYQERFTFTTQKFNAKSCLNHFLYVINPTKIDDLHFSIITGTFDDPKIQMAVECLKGLRVVNLNTPILSNTKTLAELVKTFEPTEHLKIHRYPFQTLGFAQLFQLREILPGKFPILSLNINMPLNGLLLTSSSSVGVNNNRLLTSKDFNIFLKHWIAGLKPELECIRILDYRLDWNEHTVLKGIPYEVAPMETKIKFRRKEELQLGGFDFTMSSGVKATLHFHYWDRVPITEISVVLHDSEIITFL | not soluble |
| MEKTTEGAFYTREYRNLFKEFGYSEAEIQERVKDTWEQLFGDNPETKIYYEVGDDLGYLLDTGNLDVRTAGMSYGMMMAVQMDRKDIFDRIWNWTMKNMYMTEGVHAGYFAWSCQPDGTKNSWGPAPDGEEYFALALFFASHRWGDGDEQPFNYSEQARKLLHTCVHNGEGGPGHPMWNRDNKLIKFIPEVEFSDPSYHLPHFYELFSLWANEEDRVFWKEAAEASREYLKIACHPETGLAPEYAYYDGTPNDEKGYGHFFSDSYRVAANIGLDAEWFGGSEWSAEEINKIQAFFADKEPEDYRRYKIDGEPFEEKSLHPVGLIATNAMGSLASVDGPYAKANVDLFWNTPVRTGNRRYYDNCLYLFAMLALSGNFKIWFPEGQEEEHLEHHHHHH | soluble |
| MGVISAYAVVHERAAIIDPGTAKGAEIILDEIDRSWNVEYICPTHIHIDHGGGAARLAKALDAKIIVHPRGVKHVVNPEKLWEASKAVLGEVAEIYGKPESIDESKVIAVEDEQEFDLGGERLKVFHAPGHAPHMLVYYLTNSKVLFPADAVGMCFGGVVFPLTPPPFDADAALKTLKRLKGLKVDYVAFTHYGVVELEHHHHHH | soluble |
| MGSDKIHHHHHHMKYLPLGSTGLTVSECGFGCIPIIRLPQDEAVRVLRHAFDRGITFFDTANAYRDSEEKMGIAFAGIRHKLVIATKSLLRSAEGVTGHVENSLRKLGTDYLDLYQLHQIAQEKDWAEVTGPSGALEAAMAAKAAGKVRHVGVTSHNLEMALKLVRTGLFDTIQFPFNLIEEGAKDELLGAARDAGMAFICMKPFGGGVIDNAAVAFTYLRSHDGIFPIPGFESCAQVDEVLSFYERDNVVTEQDLAIMEQYRRELGKRFCRRCEYCQPCPQGVMITPAMGYPIVASRMSPAVAAEFCSKAMETVPLCTECGACIARCPYELPISDILKANYAMYRGHVAGSQGGFAGGKSS | not soluble |
| ILLLLLSLFLGLSSQAQEDSLQANRYVMRATLYGAGFTNILDTYLSPMEYTGPEIRILRESMRMTKLMNGNVSVQSLFQANLSLTENKAETSNEMAGMVNWNYALHYQFRLTENLKILAGPMLDLNGGFIYNMRNSNNPAQAKAYVNLAASGMVIYRFHIGNYPLIARYQANLPVMGIMFSPEYGQSYYEIFSLKNGGKNVLFTSLHNQPSLRQLVTLDFPIRSVNMRFGYLCDIQQAKVNNLKSHIWSHAFMIGFVKNFYLLKGKNKVAMPSRVSPY | not soluble |
